± gives the uncertainty stated by the source.

To fix the notation:
B1: Gamma-crystallin S, residues 96 to 176; numbered along this chain, P22914 (parent)
chain: IQIFEKGDFSGQMYETTEDCPSIMEQFHMREIHSCKVLEGVWIFYELPNYRGRQYLLDKKEYRKPIDWGAASPAVQSFRRI
B2: Homeobox protein cut-like 2, residues 895 to 963; numbered along this chain, O14529 (parent)
chain: EVDTLELTRQVKEKLAKNGICQRIFGEKVLGLSQGSVSDMLSRPKPWSKLTQKGREPFIRMQLWLSDQL

The first data set covers variants of B1. The data set can be described thus: abundance fitness (aPCA) (normalised: wild type 0, dead -1); higher = more abundant; growth selection in yeast, the domain comes from the species named. Particulars: Homo sapiens.
Regarding IQIFEKGDFSGQMYETTEDCPSIMEQFHMREIHSCKVLEGVWIFYELPNYRGRQYLLDKKEYRKPIDWGAASPAVQSFRRE [I81E], the abundance fitness was determined as 0.026 ± 0.14.

On to IQIFEKGDFSGQMYETTEDCPSIMEQFHMREIHSCKVLEGVWIFYELPNYRGRQYLLDKKEYRKPIDWGAASPAVQSFRRR [I81R], for which the abundance fitness is -0.074 ± 0.14.

For IQIFEKGDFSGQMYETTEDCPSIMEQFHMREIHSCKVLEGVWIFYELPNYRGRQYLLDKKEYRKPIDWGAASPAVQSFRRS [I81S], the abundance fitness was -0.043 ± 0.38.

As for IQIFEKGDFSGQMYETTEDCPSIMEQFHMREIHSCKVLEGVWIFYELPNYRGRQYLLDKKEYRKPIDWGAASPAVQSFRRK [I81K], the abundance fitness was -0.186 ± 0.24.

Regarding IQIFEKGDFSGQMYETTEDCPSIMEQFHMREIHSCKVLEGVWIFYELPNYRGRQYLLDKKEYRKPIDWGAASPAVQSLRRI [F78L], the abundance fitness stood at 0.059 ± 0.3.

On to IQIFEKGDFSGQMYETTEDCPSIMEQFHMREIHSCKVLEGVWIFYELPNYRGRQYLLDKKEYRKPIDWGAASPAVQSHRRI [F78H], for which the abundance fitness is -0.229 ± 0.37.

On to IQIFEKGDFSGQMYETTEDCPSIMEQFHMREIHSCKVLEGVWIFYELPNYRGRQYLLDKKEYRKPIDWGAASPAVQSRRRI [F78R], for which the abundance fitness was -1.11 ± 0.38.

Regarding IQIFEKGDFSGQMYETTEDCPSIMEQFHMREIHSCKVLEGVWIFYELPNYRGRQYLLDKKEYRKPIDWGAASPAVQSPRRI [F78P], the abundance fitness is -0.869 ± 0.43.

With IQIFEKGDFSGQMYETTEDCPSIMEQFHMREIHSCKVLEGVWIFYELPNYRGRQYLLDKKEYRKPIDWGAASPAVQSVRRI [F78V], the abundance fitness was -0.039 ± 0.16.

As to IQIFEKGDFSGQMYETTEDCPSIMEQFHMREIHSCKVLEGVWIFYELPNYRGRQYLLDKKEYRKPIDWGAASPAVQSKRRI [F78K], the abundance fitness was -0.771 ± 0.38.

Consider IQIFEKGDFSGQMYETTEDCPSIMEQFHMREIHSCKVLEGVWIFYELPNYRGRQYLLDKKEYRKPIDWGAASPAVQSIRRI [F78I], for which the abundance fitness is -0.228 ± 0.33.

In the case of IQIFEKGDFSGQMYETTEDCPSIMEQFHMREIHSCKVLEGVWIFYELPNYRGRQYLLDKKEYRKPIDWGAASPAVQSARRI [F78A], the abundance fitness was -0.136 ± 0.17.

Turning to IQIFEKGDFSGQMYETTEDCPSIMEQFHMREIHSCKVLEGVWIFYELPNYRGRQYLLDKKEYRKPIDWGAASPAVQSYRRI [F78Y], the abundance fitness is -0.023 ± 0.24.

Turning to IQIFEKGDFSGQMYETTEDCPSIMEQFHMREIHSCKVLEGVWIFYELPNYRGRQYLLDKKEYRKPIDWGAASPAVQSSRRI [F78S], the abundance fitness is -0.37 ± 0.21.

On to IQIFEKGDFSGQMYETTEDCPSIMEQFHMREIHSCKVLEGVWIFYELPNYRGRQYLLDKKEYRKPIDWGAASPAVQSFLRI [R79L], for which the abundance fitness was -0.406 ± 0.16.

On to IQIFEKGDFSGQMYETTEDCPSIMEQFHMREIHSCKVLEGVWIFYELPNYRGRQYLLDKKEYRKPIDWGAASPAVQSFIRI [R79I], for which the abundance fitness is -0.294 ± 0.24.

For the variant IQIFEKGDFSGQMYETTEDCPSIMEQFHMREIHSCKVLEGVWIFYELPNYRGRQYLLDKKEYRKPIDWGAASPAVQSFSRI [R79S], the abundance fitness was -0.036 ± 0.06.

As for IQIFEKGDFSGQMYETTEDCPSIMEQFHMREIHSCKVLEGVWIFYELPNYRGRQYLLDKKEYRKPIDWGAASPAVQSFERI [R79E], the abundance fitness was -0.191 ± 0.37.

On to IQIFEKGDFSGQMYETTEDCPSIMEQFHMREIHSCKVLEGVWIFYELPNYRGRQYLLDKKEYRKPIDWGAASPAVQSFGRI [R79G], for which the abundance fitness is -0.413 ± 0.14.

As to IQIFEKGDFSGQMYETTEDCPSIMEQFHMREIHSCKVLEGVWIFYELPNYRGRQYLLDKKEYRKPIDWGAASPAVQSFMRI [R79M], the abundance fitness was -0.346 ± 0.2.

As to IQIFEKGDFSGQMYETTEDCPSIMEQFHMREIHSCKVLEGVWIFYELPNYRGRQYLLDKKEYRKPIDWGAASPAVQSFWRI [R79W], the abundance fitness was -0.419 ± 0.33.

As for IQIFEKGDFSGQMYETTEDCPSIMEQFHMREIHSCKVLEGVWIFYELPNYRGRQYLLDKKEYRKPIDWGAASPAVQSFKRI [R79K], the abundance fitness was -0.358 ± 0.33.

For IQIFEKGDFSGQMYETTEDCPSIMEQFHMREIHSCKVLEGVWIFYELPNYRGRQYLLDKKEYRKPIDWGAASPAVQSFQRI [R79Q], the abundance fitness was -0.058 ± 0.33.

For the variant IQIFEKGDFSGQMYETTEDCPSIMEQFHMREIHSCKVLEGVWIFYELPNYRGRQYLLDKKEYRKPIDWGAASPAVQSFARI [R79A], the abundance fitness was 0.147 ± 0.37.

For IQIFEKGDFSGQMYETTEDCPSIMEQFHMREIHSCKVLEGVWIFYELPNYRGRQYLLDKKEYRKPIDWGAASPAVQSFVRI [R79V], the abundance fitness was -0.596 ± 0.26.

IQIFEKGDFSGQMYETTEDCPSIMEQFHMREIHSCKVLEGVWIFYELPNYRGRQYLLDKKEYRKPIDWGAASPAVQSFTRI [R79T]: the abundance fitness worked out at 0.021 ± 0.21.

IQIFEKGDFSGQMYETTEDCPSIMEQFHMREIHSCKVLEGVWIFYELPNYRGRQYLLDKKEYRKPIDWGAASPAVQGFRRI [S77G]: the abundance fitness was -0.35 ± 0.13.

As for IQIFEKGDFSGQMYETTEDCPSIMEQFHMREIHSCKVLEGVWIFYELPNYRGRQYLLDKKEYRKPIDWGAASPAVQPFRRI [S77P], the abundance fitness was -0.457 ± 0.23.

IQIFEKGDFSGQMYETTEDCPSIMEQFHMREIHSCKVLEGVWIFYELPNYRGRQYLLDKKEYRKPIDWGAASPAVQLFRRI [S77L]: the abundance fitness is -0.932 ± 0.48.

Regarding IQIFEKGDFSGQMYETTEDCPSIMEQFHMREIHSCKVLEGVWIFYELPNYRGRQYLLDKKEYRKPIDWGAASPAVQTFRRI [S77T], the abundance fitness is -0.714 ± 0.37.

Take IQIFEKGDFSGQMYETTEDCPSIMEQFHMREIHSCKVLEGVWIFYELPNYRGRQYLLDKKEYRKPIDWGAASPAVQAFRRI [S77A]: the abundance fitness was -0.003 ± 0.18.

For the variant IQIFEKGDFSGQMYETTEDCPSIMEQFHMREIHSCKVLEGVWIFYELPNYRGRQYLLDKKEYRKPIDWGAASPAVQCFRRI [S77C], the abundance fitness was -0.327 ± 0.44.

In another data set the parent is B2. Described as above. Particulars: Homo sapiens.
For the variant EVDTLELTRQVKEKLAKNGICQRIFGEKVLGLSQGSVSDMLSRPKPWSKLTQKGREPFIRMQLWLSDWL [Q68W], the abundance fitness was -0.087 ± 0.037.

EVDTLELTRQVKEKLAKNGICQRIFGEKVLGLSQGSVSDMLSRPKPWSKLTQKGREPFIRMQLWASDQL [L65A]: the abundance fitness was -0.694 ± 0.093.

The values above are taken from the Human Domainome abundance scans (Beltran et al. 2025).
